Results as given in patent US20250163183A1 (COAGULANT THERAPEUTICS, published 2025).
Residue numbers refer to the chain shown, from its start.

B1: SR16983-R3-P4-A07 (VHH)
VHH: QVQLVESGGGLVQAGGSLRLSCAASGRTFVGSYVMGWFRQAPGKEREFVAASSRSTGNTVYLDSVKGRFTVSRDDAKNTLYLQMNSLKPEDTAVYYCATRASINYNYAAWPYWGQGTQVTVSS
B2: SR16983-R3-P3-G05 (VHH)
VHH: QLQLVESGGGLVQAGGSLRLSCAASGFTLDDYAIGWFRQAPGKEREGVSCIASSDGSTYYADSVKGRFTISTDNAKNTVYLQMNSLKPEDTAVYYCARGGLLLPKPELFDSWGQGTQVTVSS
B3: SR16983-R3-P3-A12 (VHH)
VHH: B2 VHH with A14P, A24V, C50S, S53T, T72S, K105R, F109Y, D110E, S111Y
B4: SR16983-R3-P4-A05 (VHH)
VHH: B2 VHH with S53T, T72S, N74A, N84D, S111G, S122T
B5: SR16983-R3-P3-C06 (VHH)
VHH: QLQLVESGGGLVQPGGSLRLSCAASGFTFSTKWMYWVRQGPGKGLEWVSTIDASGGSTYYADSVKGRFTISRDNTEKKVYLQMNSLESADTAVYYCARSAGGQFRGRGTQVTVSS
B6: SR16983-R3-P2-D12 (VHH)
VHH: QLQLVESGGGLVQAGGSLRLSCAASGSTFNFNIMGWYRQVPGKQRELVAVINSGGSADYTEDVKGRFTISRDNAKSIMYLQMNSLKPEDTAVYYCNAKKVEPTLFTTTYWGQGTQVTVSS
B7: SR16983-R2-P4-H08 (VHH)
VHH: QLQLVESGGGLMQAGGSLRLSCAASGTTSSLNLMGWYRQAPGKKRESVAHMTSDGRTDYTDSVKGRFTISRDNSKNTVYLQMNNLKPEDTAVYYCYANPFLGSWSNYWGQGTQVTVSS
B8: SR16983-R4-P1-A12 (VHH)
VHH: B7 VHH with M12V, R56D, T60V, L85V
B9: SR16983-R3P2H05 (VHH)
VHH: QLQLVESGGGLVQPGGSLRLACAASGFSFDDYAIGWFRQAPGKEREGVSCITSDGSTYYADSVKGRFTISSDYAKNTVHLQMNSLKPEDTAVYYCARGGLLLPKPELFDDWGQGTQVTVSS
B10: SR16983-R2-P3-F07 (VHH)
VHH: QLQLVESGGGLVQAGGSLRLSCAASGTTFDMNSMGWYRQAPGFKRDLVATISIGGDTNYTDSVKGRFTISRDNAKNTVYMQMNSLKPEDTAVYYCNAERIWPNRRSFWGQGTQVTVSS
B11: SR16983-R3-P5-D01 (VHH)
VHH: B10 VHH with M34I, F43K, K44Q, D46E, D56S, T60A, D72G, S106T
B12: SR16983-R2-P2-G11 (VHH)
VHH: QVQLVESGGGLVQAGGSLRLSCAASGTTFSFNYMGWYRQAPGNQRDLVARISSGGITNYADSVKGRFTISGDNAKNVVYLQMNSLKPEDTARYYCFYNGHLNKWGQGTQVTVSS
B13: SR16983-R3-P2-E09 (VHH)
VHH: B12 VHH with V2L, I56S, G71A, V77T, Y94T, Y97W, H100Y, L101T
B14: SR16983-R3-P5-C03 (VHH)
VHH: B12 VHH with V2L, N32V, D46E, I51L, G54D, I56S, T68L, V77T
B15: SR16983-R3-P2-G05 (VHH)
VHH: B12 VHH with V2L, A14T, N32V, G54D, I56S, D72G, V77T
B16: SR16983-R3-P4-F06 (VHH)
VHH: B12 VHH with V2L, A23E, G26R, V77T
B17: SR16983-R2-P5-H07 (VHH)
VHH: B12 VHH with N32V, D46E, G54D, I56S, A60S, T68L, D72A, V77T
B18: SR16983-R3-P2-B02 (VHH)
VHH: B12 VHH with V2L, N32V, G54D, I56S, V77I
B19: SR16983-R3-P4-H10 (VHH)
VHH: QVQLVESGGGLVQAGGSLRLSCAASGLTSSTYVMAWFRQAPGKEREFVSVIDSRGDTTYANSVKGRFTTSRDFGKNTVYLQMNSLQPEDTALYYCAARASPAYVARLYAYWGRGTQVTVSS
B20: SR16983-R2-P2-A08 (VHH)
VHH: B19 VHH with L11V, N61K, T68S, T69I, F73N, T77A, P101A, A102S, L107M
B21: SR16983-R3P2A07 (VHH)
VHH: QVQLVESGGRLVQAGGSLRLSCAASGRTSSNYAMGWFRQAPGKERRFVAGISRDGADTSYADSVKGRFTILRDRSKNTADLQMNSLKPEDTAIYYCAAARGIYGEISRYTGDYESWGQGTQVTVSS
B22: SR16983-R3P2F4 (VHH)
VHH: QLQLVESGGGLVQAGGSLRLSCAASGRIFGTYVMGWFRQAPGKEREFVAAVSRSTGSTYADSVKGRFTISRDDAKNMLYLQMNNLRPEDTAIYYCATRASINYNYANWPYWGQGTQVTVSS
B23: SR16983-R2-P2-E10 (VHH)
VHH: QLQLVESGGGLVQPGGSLRLSCVLSGSTFGRNVITWYRQPPGKQREFIAMITTSGSTRYADSVKGRFTMSRDTAKNTAFLQMSNLKLEDTAVYYCWTAIAGQGEYWGQGTQVTVSS
B24: SR16983-R4-P1-C07 (VHH)
VHH: B23 VHH with Q1E, L2V, L11V, P14A, S27N, R31D, T53K, N84S, L87V
B25: SR16983-R3P2D09 (VHH)
VHH: QVQLVESGGGLVQAGGSLRLSCAASGRTVGSYAMGWFRQAPGKEREFLAAFSRSTGNTVYADSVKGRFTISRDDAKNTLYLQMNSLKPEDTAVYYCAARASINYNYANWPYWGQGTQVTVSS
B26: SR16983-R3-P3-G03 (VHH)
VHH: B25 VHH with A33V, F47L
B27: SR16983-R3-P3-F04 (VHH)
VHH: B25 VHH with V2L, F51S
B28: SR16983-R3P2G08 (VHH)
VHH: QLQLVESGGGLVQAGGSMRLSCTASGSTVRVTAGGWYRQAPGNERELVADIDNGGSTTYADSVKGRFTISRDNAKNAVDLQMNSLKPEDTAVYRCFVIAIPDSAPRPRAYWGQGTQVTVSS
B29: SR16983-R3P2H01 (VHH)
VHH: B28 VHH with E6Q, M18L, A40T, Q116E
B30: SR16983-R2-P4-F09 (VHH)
VHH: QVQLVESGGGLVQAGGSLRLSCAASGFTFDDYAIGWFRQAPGKEREGIACRSTDGSTYYADSVEGRFTISSDNAKRTVYLQMNSLKPGDTAVYYCAADLMGVHRRCSGYLNLEYGMDYWAKGTLVTVSS
B31: SR16983-R2-P4-G06 (VHH)
VHH: EVQLVESGGGLVQAGGSLRLSCTTSGSTFSITAGGWYRQAPGKQRELVADIANDGSTTYADSVKGRFTISRDNAKNTVELQMSSLKLEDTAVYLCFVVGISDSTPRPRAYWGQGTQVTVSS
B32: SR16983-R3-P2-B05 (VHH)
VHH: B7 VHH with M12V, T60V, Y94I
notes: The cell prints 55 (a CDR1 entry); to be checked
B33: SR16983-R2-P3-E06 (VHH)
VHH: B25 VHH with V2L, A23V, M34V, G35A, F47L, F51S, S71A
B34: SR16983-R3-P5-G12 (VHH)
VHH: B25 VHH with V2L, A23V, M34V, G35A, F47L, F51S, S71A

Biological target: T1, human protein C (PC) zymogen (human, UniProt P04070 43-197; P04070 200-461)
T1 construct: Bought
T1 sequence (P04070 43-197, chain 1 of 2): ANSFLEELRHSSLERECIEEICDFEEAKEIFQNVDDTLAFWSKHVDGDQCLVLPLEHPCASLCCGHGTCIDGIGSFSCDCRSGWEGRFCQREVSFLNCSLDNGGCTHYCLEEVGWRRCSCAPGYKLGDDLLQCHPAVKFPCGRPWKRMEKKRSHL
T1 sequence (P04070 200-461, chain 2 of 2): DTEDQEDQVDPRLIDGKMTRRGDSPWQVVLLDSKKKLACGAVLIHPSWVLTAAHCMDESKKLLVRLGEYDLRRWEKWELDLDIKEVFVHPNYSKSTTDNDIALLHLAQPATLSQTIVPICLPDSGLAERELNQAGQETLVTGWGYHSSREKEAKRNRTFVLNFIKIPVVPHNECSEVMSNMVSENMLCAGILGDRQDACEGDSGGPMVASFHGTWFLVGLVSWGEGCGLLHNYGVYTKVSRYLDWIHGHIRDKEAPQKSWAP
Assay: ELISA screen, PC-coated wells, OD450, n=2 [Continued]

binding result | Binder
no binding | B1
no binding | B2
no binding | B3
no binding | B4
no binding | B5
no binding | B6
no binding | B7
no binding | B8
no binding | B9
no binding | B10
no binding | B11
no binding | B12
no binding | B13
no binding | B14
no binding | B15
no binding | B16

binding result | Binder
no binding | B17
no binding | B18
no binding | B19
no binding | B20
no binding | B21
no binding | B22
no binding | B23
no binding | B24
no binding | B25
no binding | B26
no binding | B27
no binding | B28
no binding | B29
no binding | B30
no binding | B31

Biological target: T2, human APC-PPACK (active site-blocked APC) (human, UniProt P04070 43-461, active site bound by the tripeptide inhibitor Phe-Pro-Arg-chloromethylketone (PPACK))
T2 construct: Bought (Haematologic Technologies)
T2 sequence (P04070 other isoform, or with tags, fused parts or gaps): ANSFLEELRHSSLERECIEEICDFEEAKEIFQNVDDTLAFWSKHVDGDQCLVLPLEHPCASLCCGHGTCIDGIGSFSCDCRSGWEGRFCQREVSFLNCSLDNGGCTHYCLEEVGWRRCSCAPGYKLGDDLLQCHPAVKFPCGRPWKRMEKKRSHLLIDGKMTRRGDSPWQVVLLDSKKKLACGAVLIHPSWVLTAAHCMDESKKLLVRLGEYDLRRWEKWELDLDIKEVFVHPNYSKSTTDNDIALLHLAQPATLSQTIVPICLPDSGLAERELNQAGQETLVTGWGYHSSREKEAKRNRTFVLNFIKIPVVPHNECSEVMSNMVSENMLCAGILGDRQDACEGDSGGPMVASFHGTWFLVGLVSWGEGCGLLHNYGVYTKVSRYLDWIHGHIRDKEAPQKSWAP
Assay: ELISA

binding result | Binder
binds | B1
binds | B2
binds | B3
binds | B4
binds | B5
binds | B6
binds | B7
binds | B8
binds | B9
binds | B10
binds | B11
binds | B12
binds | B13
binds | B14
binds | B15
binds | B16
binds | B17
binds | B18
binds | B19
binds | B20
binds | B21
binds | B22
binds | B23
binds | B24
binds | B25
binds | B26
binds | B27
binds | B28
binds | B30
binds | B31

Biological target: T1, human protein C (PC) zymogen
Assay: ELISA screen, PC-coated wells, OD450, n=2 [Continued]
Remark: another data set of the same source

binding result | Binder
no binding | B32
no binding | B33
no binding | B34
